Bridge positions count the residues as written; N and C are the ends. Ends that are not written are not given here.
What was measured:
[1] = biological target: T1, rat collagen (acid soluble, type I, rat tail, Upstate 08-115) (rat, UniProt P02454 152-1207; P02466 86-1125); experiment: dried collagen assay
T1 construct: gelled and dried as a fibril film in the dried collagen assay; also called dried rat collagen; insoluble rat collagen

[2] = biological target: T2, human collagen type I (acid soluble, extracted from placenta, Sigma C7774) (human, UniProt P02452 162-1218; P08123 80-1119); experiment: dried collagen assay
T2 construct: gelled and dried as a fibril film in the dried collagen assay; also called dried human collagen; h-Collagen
T2 sequence (P02452 162-1218 limits assumed, chain 1 of 2): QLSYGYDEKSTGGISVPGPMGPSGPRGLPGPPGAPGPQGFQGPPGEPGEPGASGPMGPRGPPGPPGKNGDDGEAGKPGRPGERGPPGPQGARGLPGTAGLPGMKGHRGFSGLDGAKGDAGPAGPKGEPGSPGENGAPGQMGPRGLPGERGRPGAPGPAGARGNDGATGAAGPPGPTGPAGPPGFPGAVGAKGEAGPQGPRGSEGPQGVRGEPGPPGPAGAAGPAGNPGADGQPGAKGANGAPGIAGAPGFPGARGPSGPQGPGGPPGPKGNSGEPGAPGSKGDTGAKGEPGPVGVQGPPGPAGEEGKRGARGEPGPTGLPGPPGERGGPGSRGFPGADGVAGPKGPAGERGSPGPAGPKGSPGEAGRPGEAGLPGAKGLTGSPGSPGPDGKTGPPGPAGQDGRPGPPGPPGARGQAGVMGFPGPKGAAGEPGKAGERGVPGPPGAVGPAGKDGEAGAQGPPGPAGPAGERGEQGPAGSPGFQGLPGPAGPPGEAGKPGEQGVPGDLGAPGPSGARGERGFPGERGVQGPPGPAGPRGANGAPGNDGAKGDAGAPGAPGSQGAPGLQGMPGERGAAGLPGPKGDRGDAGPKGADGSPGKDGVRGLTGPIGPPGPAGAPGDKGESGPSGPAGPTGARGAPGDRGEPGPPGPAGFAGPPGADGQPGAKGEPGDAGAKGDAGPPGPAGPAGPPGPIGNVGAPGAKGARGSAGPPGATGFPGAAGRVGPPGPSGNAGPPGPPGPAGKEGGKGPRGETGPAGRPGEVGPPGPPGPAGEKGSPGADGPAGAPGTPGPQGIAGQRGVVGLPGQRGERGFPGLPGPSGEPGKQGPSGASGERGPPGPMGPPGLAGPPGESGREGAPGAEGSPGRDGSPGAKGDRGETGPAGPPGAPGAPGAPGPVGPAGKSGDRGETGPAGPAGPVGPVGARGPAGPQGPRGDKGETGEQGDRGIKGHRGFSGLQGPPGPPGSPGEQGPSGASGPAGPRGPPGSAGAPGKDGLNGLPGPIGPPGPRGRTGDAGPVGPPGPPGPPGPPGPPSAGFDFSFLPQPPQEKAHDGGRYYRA
T2 sequence (P08123 80-1119 limits assumed, chain 2 of 2): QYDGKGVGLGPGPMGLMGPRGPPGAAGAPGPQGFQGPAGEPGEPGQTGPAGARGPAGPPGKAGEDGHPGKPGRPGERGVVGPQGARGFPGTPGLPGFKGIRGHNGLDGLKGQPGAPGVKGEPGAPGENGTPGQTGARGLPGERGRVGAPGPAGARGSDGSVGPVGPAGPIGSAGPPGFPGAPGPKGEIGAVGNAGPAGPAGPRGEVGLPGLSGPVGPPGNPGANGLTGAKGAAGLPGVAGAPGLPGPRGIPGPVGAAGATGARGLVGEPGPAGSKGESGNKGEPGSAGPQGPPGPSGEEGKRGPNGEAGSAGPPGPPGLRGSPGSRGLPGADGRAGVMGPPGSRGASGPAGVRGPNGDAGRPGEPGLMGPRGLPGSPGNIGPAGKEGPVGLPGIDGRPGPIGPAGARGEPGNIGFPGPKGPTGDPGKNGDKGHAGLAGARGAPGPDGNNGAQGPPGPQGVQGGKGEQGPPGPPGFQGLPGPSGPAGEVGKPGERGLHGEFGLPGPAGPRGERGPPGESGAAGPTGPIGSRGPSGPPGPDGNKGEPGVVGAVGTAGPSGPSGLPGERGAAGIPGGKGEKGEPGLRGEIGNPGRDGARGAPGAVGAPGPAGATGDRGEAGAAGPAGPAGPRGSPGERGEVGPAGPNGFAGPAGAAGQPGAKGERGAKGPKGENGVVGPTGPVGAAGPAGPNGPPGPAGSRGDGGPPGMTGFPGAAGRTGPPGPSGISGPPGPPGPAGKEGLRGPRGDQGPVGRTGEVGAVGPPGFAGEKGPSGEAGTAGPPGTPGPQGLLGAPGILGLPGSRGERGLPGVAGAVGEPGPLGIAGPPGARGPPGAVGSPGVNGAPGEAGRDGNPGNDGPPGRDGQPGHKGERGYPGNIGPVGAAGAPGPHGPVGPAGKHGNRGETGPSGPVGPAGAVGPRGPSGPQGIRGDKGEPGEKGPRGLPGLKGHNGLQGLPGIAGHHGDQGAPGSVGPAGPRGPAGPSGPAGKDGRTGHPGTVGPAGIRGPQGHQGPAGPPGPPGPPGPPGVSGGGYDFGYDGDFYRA

T1 sequence (P02454 152-1207, chain 1 of 2): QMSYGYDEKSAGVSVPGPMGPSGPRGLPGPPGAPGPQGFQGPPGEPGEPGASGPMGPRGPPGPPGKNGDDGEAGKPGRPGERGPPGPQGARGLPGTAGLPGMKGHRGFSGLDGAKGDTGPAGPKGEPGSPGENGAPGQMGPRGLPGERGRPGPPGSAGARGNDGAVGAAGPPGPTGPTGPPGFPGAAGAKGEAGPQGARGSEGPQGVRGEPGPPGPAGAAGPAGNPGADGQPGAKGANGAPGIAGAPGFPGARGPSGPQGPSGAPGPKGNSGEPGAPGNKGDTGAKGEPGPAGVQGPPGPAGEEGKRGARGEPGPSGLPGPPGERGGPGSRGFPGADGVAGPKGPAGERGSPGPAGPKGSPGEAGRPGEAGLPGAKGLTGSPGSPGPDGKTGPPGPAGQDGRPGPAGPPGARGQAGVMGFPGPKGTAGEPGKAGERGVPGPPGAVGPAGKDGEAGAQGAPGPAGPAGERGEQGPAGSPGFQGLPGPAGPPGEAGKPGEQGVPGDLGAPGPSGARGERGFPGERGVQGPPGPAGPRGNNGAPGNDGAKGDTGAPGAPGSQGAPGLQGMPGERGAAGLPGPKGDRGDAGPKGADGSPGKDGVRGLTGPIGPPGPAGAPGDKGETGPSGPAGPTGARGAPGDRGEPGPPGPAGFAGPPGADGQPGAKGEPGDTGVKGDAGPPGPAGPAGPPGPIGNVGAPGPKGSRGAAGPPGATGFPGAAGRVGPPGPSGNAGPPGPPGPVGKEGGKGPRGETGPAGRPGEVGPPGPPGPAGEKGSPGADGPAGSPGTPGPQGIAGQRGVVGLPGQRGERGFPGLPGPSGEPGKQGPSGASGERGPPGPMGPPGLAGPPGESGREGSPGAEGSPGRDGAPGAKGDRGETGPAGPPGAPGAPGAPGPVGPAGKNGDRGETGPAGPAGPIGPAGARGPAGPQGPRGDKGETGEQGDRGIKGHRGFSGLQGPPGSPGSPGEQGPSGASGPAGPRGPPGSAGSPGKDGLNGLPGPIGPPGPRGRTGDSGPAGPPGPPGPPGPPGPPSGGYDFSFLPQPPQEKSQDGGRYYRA
T1 sequence (P02466 86-1125, chain 2 of 2): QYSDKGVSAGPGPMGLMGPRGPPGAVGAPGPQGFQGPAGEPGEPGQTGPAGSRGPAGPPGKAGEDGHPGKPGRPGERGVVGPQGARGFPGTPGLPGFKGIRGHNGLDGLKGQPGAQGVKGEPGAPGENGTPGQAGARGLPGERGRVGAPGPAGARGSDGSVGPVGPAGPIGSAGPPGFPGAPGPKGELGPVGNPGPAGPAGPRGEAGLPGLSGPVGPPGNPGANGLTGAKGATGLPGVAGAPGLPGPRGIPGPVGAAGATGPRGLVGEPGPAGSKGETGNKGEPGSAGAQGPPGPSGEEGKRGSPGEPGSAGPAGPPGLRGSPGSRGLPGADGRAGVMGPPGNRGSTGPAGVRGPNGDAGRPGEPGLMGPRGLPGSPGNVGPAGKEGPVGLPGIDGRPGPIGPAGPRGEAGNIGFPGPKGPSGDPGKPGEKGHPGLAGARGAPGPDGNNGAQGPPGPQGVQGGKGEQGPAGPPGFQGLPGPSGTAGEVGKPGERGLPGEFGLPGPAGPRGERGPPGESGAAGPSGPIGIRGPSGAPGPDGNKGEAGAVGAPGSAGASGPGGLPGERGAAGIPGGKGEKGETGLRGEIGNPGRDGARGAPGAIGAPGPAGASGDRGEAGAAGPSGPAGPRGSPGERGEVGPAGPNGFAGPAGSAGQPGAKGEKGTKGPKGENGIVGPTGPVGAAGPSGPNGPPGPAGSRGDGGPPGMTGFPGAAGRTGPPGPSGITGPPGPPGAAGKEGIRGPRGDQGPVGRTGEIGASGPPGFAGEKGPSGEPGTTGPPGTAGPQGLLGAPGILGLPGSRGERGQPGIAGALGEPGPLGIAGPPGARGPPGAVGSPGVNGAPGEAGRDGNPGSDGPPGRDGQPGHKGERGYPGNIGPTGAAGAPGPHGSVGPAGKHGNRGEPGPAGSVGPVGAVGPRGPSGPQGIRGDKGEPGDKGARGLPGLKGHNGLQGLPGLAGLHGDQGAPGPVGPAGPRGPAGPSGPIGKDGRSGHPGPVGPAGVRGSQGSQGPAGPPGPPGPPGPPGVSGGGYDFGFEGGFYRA

| % Collagen Binding [1] | % Collagen Binding [2] | Binder |
| --- | --- | --- |
| 6% | – | YHACYQAGCYIW (disulfide 4-9; not fully specified (C-terminus)) [SEQ ID NO: 107] |
| 24% | 0% | YHASYQAGSWIW (not fully specified) [SEQ ID NO: 111] |

From patent US20080058636A1 (EPIX PHARMACEUTICALS, published 2008)
